Assay results taken from the supplement of paper PMC10567573.

B1: C22orf15 (parent)
chain: PRGRAHLLPNPYQQDFLGLPEELR

Variants of: B1
Assay: protein stability index of a GFP-peptide fusion (GPS, HEK-293T) (PSI 1-6); higher = more stable
Conditions: c terminus: a fixed tail appended
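Also: lentivirally expressed fusions sorted by FACS into six bins by GFP to DsRed ratio, PSI derived from sequencing read proportions per bin multiplied by bin number.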

Variant	protein stability index
E22P	3.25
E22H	3.42
E22L	2.3
E22K	3.47
E22T	4.23
E22S	3.62
E22W	2.93
E22N	3.65
E22Q	3.57
E22Y	2.52
E22I	2.59
E22G	3.61
E22C	3.22
E22F	3.27
E22V	3.11
E22R	3.76
E22M	2.64
E22A	3.47
E22D	4.06
D15N	3.31
D15H	3.17
D15T	3.44
D15M	2.97
D15W	2.98

Variant	protein stability index
D15F	2.96
D15I	3.22
D15R	3.74
D15C	2.67
D15Q	3.69
D15V	3.36
D15P	3.76
D15Y	3.2
D15K	3.3
D15G	3.44
D15S	3.19
D15L	2.99
D15E	3.74
E21A	3.54
E21I	2.89
E21F	3.42
E21T	2.81
E21N	3.63
E21W	2.9
E21P	3.6
E21M	3.14
E21R	3.15
E21V	3.1
E21Y	2.75

Variant	protein stability index
E21G	3.61
E21Q	3.06
E21C	3.3
E21D	3.51
E21K	3.56
E21S	3.29
E21H	3.44
E21L	3.02
L23T	3.94
L23F	3.66
L23G	4.41
L23N	4.01
L23K	4.63
L23C	4.08
L23Q	4.51
L23V	3.68
L23I	4.09
L23A	4.24
L23P	3.6
L23M	4.33
L23R	4.04
L23S	4.17
L23H	4.68
L23D	4.49

Variant	protein stability index
L19S	4
L19D	4.68
L19G	4.05
L19H	4.21
L19Y	3.82
L19A	4.13
L19V	4
L19C	4.26
L19M	3.53
L19E	4.5
L19I	3.57
L19P	4.22
L19R	3.9
L19W	3.75
L19N	4.1
L19Q	4.69
L19K	4.28
L19T	4.26
L19F	3.31
F16Y	4.17
F16A	4.12
F16H	4.44
F16L	4.23
F16V	4.17

Variant	protein stability index
F16P	4.12
F16N	4.36
F16C	4.11
F16Q	3.84
F16T	4.17
F16S	3.83
F16G	4.4
F16I	4.01
F16K	4.22
F16D	4.92
F16E	4.63
F16R	4.15
F16W	3.65
F16M	4.15
L17K	4.42
L17C	4.04
L17F	3.47
L17G	3.84
L17E	4.94
L17V	4.52
L17W	3.37
L17S	4.2
L17Y	3.6
L17R	4.03

Variant	protein stability index
L17M	3.44
L17A	4.43
L17Q	4.4
L17I	2.85
L17D	4.87
L17P	4.3
L17N	4.28
L17H	4.41
L17T	4.17
P20M	2.78
P20A	3.46
P20Q	3.53
P20H	3.37
P20F	2.43
P20L	2.76
P20N	3.62
P20Y	2.42
P20R	3.23
P20T	3.42
P20I	2.75
P20G	3.14
P20V	2.46
P20C	2.85
P20D	4.07

Variant	protein stability index
P20E	4.08
P20K	3.38
P20S	3.39
P20W	2.26
G18T	4.05
G18D	4.66
G18Y	3.34
G18P	3.71
G18R	3.32
G18M	3.98
G18N	4.25
G18W	2.98
G18H	4.19
G18I	3.49
G18F	3.24
G18L	3.7
G18E	4.36
G18S	3.94
G18V	3.73
G18Q	4.27
G18K	4.13
G18A	4.25
G18C	3.9
